Holding throughout (experiment): flow; yeast surface display titration; unit as printed (uM)
For data set [1], the target named is T1, CCR5_S08_1B6 I-OnuI variant (artificial (I-OnuI derived)).
T1 chain: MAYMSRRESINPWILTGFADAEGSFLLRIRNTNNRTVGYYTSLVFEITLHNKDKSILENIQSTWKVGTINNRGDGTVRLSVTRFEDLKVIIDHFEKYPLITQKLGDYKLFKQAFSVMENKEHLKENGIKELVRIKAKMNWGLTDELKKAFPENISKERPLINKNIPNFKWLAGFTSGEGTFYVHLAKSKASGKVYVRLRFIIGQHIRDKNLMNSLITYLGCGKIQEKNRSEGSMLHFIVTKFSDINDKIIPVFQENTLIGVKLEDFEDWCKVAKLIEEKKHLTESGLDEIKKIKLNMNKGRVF
As to conditions: label: Alexa Fluor 647 / biotin in cleavage assay. On the procedure: (§1) The LHEs containing the engineered DNA recognition interfaces for the CCR5_S02 (SEQ ID NO: 3) and CCR5_S08 (SEQ ID NO: 5) targets were tested for affinity, specificity, and toxicity characteristics. Affinity was tested by independently incubating yeast displaying the CCR5_S02_1F5 variant, (SEQ ID NO: 09 encoding SEQ ID NO: 10), and the CCR5_S08_1B6 variant (SEQ ID NO: 11 encoding SEQ ID NO: 12), with DNA substrates containing their target sequences at various concentrations. See FIG. 4 showing the affinity properties of these two variants relative to the wild-type I-OnuI protein. […] Specificity was tested by analyzing the relative ability of each LHE to cleave target sequences containing each of the three alternate DNA base pairs at each position along the substrate. See FIG. 5 illustrating the specificity profile of the CCR5_S02_1F5 and CCR5_S08_1B6 variants. […] Toxicity was analyzed by in vitro transcribing each LHE into mRNA and transfecting primary human T cells by electroporation, followed by flow cytometry analysis of the survival of the cells relative to transfection with a control mRNA encoding a blue fluorescent protein (BFP). See FIG. 6 showing flow cytometry analysis of primary human T cells after treatment with the CCR5_S02_1F5 and CCR5_S08_1B6 variants.

Data set [2] concerns the target T2, CCR5_S02_1F5 I-OnuI variant (artificial (I-OnuI derived)).
T2 chain: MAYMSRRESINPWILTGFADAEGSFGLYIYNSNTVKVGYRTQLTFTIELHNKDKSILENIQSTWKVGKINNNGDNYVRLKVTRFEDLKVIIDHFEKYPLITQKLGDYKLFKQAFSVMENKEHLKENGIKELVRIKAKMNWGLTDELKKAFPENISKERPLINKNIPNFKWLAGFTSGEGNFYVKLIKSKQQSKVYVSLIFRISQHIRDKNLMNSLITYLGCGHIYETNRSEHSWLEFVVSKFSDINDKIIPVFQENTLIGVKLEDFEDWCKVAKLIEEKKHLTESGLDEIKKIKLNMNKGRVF
As to conditions: label: Alexa Fluor 647 / biotin in cleavage assay. On the procedure: as §1

Data set [3] has as its target T3, I-OnuI (wild type) (Ophiostoma novo-ulmi).
T3 chain: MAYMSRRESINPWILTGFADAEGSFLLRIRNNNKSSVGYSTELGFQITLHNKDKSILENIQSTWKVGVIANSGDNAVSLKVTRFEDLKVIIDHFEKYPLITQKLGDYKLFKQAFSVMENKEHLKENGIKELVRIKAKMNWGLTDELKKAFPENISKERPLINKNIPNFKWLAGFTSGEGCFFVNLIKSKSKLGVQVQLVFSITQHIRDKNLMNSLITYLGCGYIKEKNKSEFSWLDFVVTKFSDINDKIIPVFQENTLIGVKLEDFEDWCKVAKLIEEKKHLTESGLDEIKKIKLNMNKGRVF
As to conditions: label: fluorescent dye. The protocol: as §1

B1: CCR5_S08 target (dsDNA)
DNA 1: CTTCCAGGAATTCTTTGGCCTG
DNA 2: CAGGCCAAAGAATTCCTGGAAG
B1: in data set [1], the equilibrium dissociation constant (Kd) is roughly 20 µM.

B2: CCR5_S02 target (dsDNA)
DNA 1: ATGAAGAAGATTCCAGAGAAGA
DNA 2: TCTTCTCTGGAATCTTCTTCAT
In turn, B2 registered a dissociation constant (Kd) in data set [2] of roughly 35 µM.

B3: I-OnuI native target (dsDNA)
DNA 1: TTTCCACTTATTCAACCTTTTA
DNA 2: TAAAAGGTTGAATAAGTGGAAA
With B3, the equilibrium dissociation constant (Kd) in data set [3] was roughly 80 µM.

The values above are taken from patent US20160102323, “A LAGLIDADG HOMING ENDONUCLEASE CLEAVING THE C-C CHEMOKINE RECEPTOR TYPE-5 (CCR5) GENE AND USES THEREOF” (CELLECTIS, published 2016).
